Data on one variant can be found in article PMC10675840, “Structure-function analysis of ceTIR-1/hSARM1 explains the lack of Wallerian axonal degeneration in C. elegans” (Cell reports, 2023).

Sequences and labels used below:
B1: ceTIR-1^TIR (residues 703-872) [C. elegans] / itself (parent)
chain: MLSKQIDVFISYRRSTGNQLASLIKVLLQLRGYRVFIDVDKLYAGKFDSSLLKNIQAAKHFILVLTPNSLDRLLNDDNCEDWVHKELKCAFEHQKNIIPIFDTAFEFPTKEDQIPNDIRMITKYNGVKWVHDYQDACMAKVVRFITGELNRTTPTTKEMPSISRKTTQQR

In the assay the parent is B1. The assay is described as follows: gel filtration (size exclusion chromatography). The conditions noted are these: with itself. (In general: Size exclusion chromatography separates by hydrodynamic size, large species first.)
Turning to MLSKQIDVFISYRRSTGNQLASLIKVHLQLRGYRVFIDVDKLYAGKFDSSLLKNIQAAKHFILVLTPNSLDRLLNDDNCEDWVHKELKCAFEHQKNIIPIFDTAFEFPTKEDQIPNDIRMITKYNGVKWVHDYQDACMAKVVRFITGELNRTTPTTKEMPSISRKTTQQR, the elution volume was 17.2 mL.
